# T1: hiR2-FL-T586A-T7 (human, UniProt Q6PJF5 1-856)
# T1 sequence: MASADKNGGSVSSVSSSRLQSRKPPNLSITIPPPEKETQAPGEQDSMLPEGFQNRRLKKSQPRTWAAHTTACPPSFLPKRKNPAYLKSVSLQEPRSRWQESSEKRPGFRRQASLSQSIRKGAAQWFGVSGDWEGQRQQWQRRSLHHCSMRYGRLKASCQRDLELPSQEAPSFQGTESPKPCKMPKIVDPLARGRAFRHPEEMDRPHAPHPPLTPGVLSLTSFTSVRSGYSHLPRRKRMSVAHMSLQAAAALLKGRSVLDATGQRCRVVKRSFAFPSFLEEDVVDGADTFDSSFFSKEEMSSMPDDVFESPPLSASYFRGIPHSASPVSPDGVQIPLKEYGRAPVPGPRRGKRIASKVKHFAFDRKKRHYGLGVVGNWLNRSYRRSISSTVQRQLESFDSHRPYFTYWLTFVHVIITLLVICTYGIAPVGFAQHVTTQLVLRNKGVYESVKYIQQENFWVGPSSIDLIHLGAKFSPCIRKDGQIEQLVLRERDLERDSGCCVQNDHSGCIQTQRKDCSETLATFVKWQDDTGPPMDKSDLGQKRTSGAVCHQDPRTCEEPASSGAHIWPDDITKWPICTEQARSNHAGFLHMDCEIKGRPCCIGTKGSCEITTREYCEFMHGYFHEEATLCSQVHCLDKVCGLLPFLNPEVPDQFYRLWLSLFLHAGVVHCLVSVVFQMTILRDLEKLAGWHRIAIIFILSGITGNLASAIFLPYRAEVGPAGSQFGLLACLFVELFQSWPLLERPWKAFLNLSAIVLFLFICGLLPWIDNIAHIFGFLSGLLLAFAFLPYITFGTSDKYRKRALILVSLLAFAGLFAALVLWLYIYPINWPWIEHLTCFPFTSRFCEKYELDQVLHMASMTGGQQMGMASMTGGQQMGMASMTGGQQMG
# T2: hiR2-FL-P532A-T7 (human, UniProt Q6PJF5 1-856)
# T2 sequence: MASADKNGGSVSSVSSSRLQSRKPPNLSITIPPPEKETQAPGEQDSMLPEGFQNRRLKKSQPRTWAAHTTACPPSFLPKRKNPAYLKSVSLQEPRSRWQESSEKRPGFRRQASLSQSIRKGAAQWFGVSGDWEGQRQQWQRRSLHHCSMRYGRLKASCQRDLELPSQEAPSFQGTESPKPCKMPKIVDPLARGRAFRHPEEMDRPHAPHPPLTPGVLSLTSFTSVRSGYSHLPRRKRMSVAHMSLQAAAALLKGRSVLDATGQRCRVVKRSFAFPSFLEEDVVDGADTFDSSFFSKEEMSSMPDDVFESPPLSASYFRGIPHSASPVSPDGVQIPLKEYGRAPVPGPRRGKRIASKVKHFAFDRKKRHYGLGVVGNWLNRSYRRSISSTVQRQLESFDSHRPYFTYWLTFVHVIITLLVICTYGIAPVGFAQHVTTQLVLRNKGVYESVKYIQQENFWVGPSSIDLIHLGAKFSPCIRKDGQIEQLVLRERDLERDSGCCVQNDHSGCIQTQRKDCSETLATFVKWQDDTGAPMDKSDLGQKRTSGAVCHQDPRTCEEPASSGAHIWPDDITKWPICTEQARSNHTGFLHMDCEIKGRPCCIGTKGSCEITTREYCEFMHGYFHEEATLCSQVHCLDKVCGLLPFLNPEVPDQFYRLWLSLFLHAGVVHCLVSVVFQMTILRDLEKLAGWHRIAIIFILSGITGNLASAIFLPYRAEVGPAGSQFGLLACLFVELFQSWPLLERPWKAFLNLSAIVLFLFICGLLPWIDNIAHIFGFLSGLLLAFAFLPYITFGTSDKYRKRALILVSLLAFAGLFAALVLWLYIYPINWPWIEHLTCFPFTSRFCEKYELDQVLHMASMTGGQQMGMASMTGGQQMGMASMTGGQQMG
# How the values were obtained:
# hiR2-FL-T586A-T7 = target: T1, hiR2-FL-T586A-T7; assay: FACS on MEF-DKO cells expressing the variant, 3 µg/ml antibody
# Method in brief: (§1)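 Primary stain: antibody 3 μg/ml, 1 h on ice; controls buffer alone. Secondary: PE anti-mouse IgG F(ab′)2 1:100, 1 h on ice, light-protected. Washes at 4° C; read by flow cytometry.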
# hiR2-FL-P532A-T7 = target: T2, hiR2-FL-P532A-T7; assay: as above
# Method in brief: as §1
Binder,loss of binding vs wild type (hiR2-FL-T586A-T7),loss of binding vs wild type (hiR2-FL-P532A-T7)
"antibody 3 (antibody, V domains shown, mouse IgG, kappa light chain; also called clone #3; purified antibody 3) VH: QVTLKESGPGILQPSQTLSLTCSFSGFSLTTFAMGIGWVRQPSGKGLEWLAHIWWDGEKYNNPVLKSRLTISKDTSKNQVFLRIANVDTPDTATYYCARISSIYYIIDNWGQGTSVTVSS VL: DIVLTQSPATLSVTPGHSVSLSCRASQSISNNLHWYQKKSHESPRLLIKYVSQSISGIPSRFSGSGSGTDFTLSINSVETEDFGMYFCQQSYNWPLTFGAGTKLELK",≥ 30%,–
"antibody 5 (antibody, V domains shown, mouse IgG, kappa light chain; also called clone #5; purified antibody 5) VH: QVTLKESGPGILQPSQTLSLTCSFSGFSLSTFGMGVGWIRQPSGKGLEWLAHIWWDDEKYYNSALKSRLTISKATSKNQAFLKIANVDTADTATYYCARISNYGSNYWYFNVWGTGTTVTVSS VL: QVVLTQSPALMSASPGEKVTMTCSAGSSVSCMYWYQQKPGSSPRVLIYDTSNLASGVPARFTGSGSGTSYSLTISRMEAEDAASYYCQQWNSYPLTFGAGTKLELK",≥ 30%,≥ 30%
"antibody 44 (antibody, V domains shown, mouse IgG, kappa light chain; also called clone #44; purified antibody 44) VH: QVTLKESGPGILQPSQTLSLTCSFSGFSLSTFGMGVGWIRQPSEKGLEWLAHIWWDDDKYYNPALKSRLTISKDTSKNQIFLKITNVDTAETATYYCSRIGNYGSNYWYFDVWGTGTTVTVSS VL: QIVLTQSPAVMSASPGEKVTMTCTASSSVYYMYWYQQTPGSSPRLLIYDTSNLASGVPVRFSGSGSGTSYSLTISRMEAEDAATYYCQQWNTYPLTFGAGTKLELK",–,≥ 30%
